According to patent US20210371498A1, “MHC CLASS I COMPOSITIONS AND METHODS” (priority 2020, published 2021):

biological target: T1, HLA-A*02:01 (Homo sapiens, UniProt P04439, D140Y/D185E/D98H/E176V/E277Q/G131W/G231S/I119V/I121R/I166T/I218V/L300P/L318F/N151K/N90K/P208A/P217A/Q86G/Q94H/R138H/R169H/T345S); assay: not given; assay type: binding; conditions: not given
T1 construct: Plasmid DNA encoding the BirA tagged luminal domain of MHC-I heavy chains HLA-A*02:01; made in house; Drosophila S2 cells (TAPBPR); gTAX synthetic (Genscript)

Sequence | Tm [°C]
VVFLHVTYV [Peptide 17] | 52.3 ± 0.0
TLMNVLTLV [Peptide 15] | 61.2 ± 0.6
TLACFVLAAV [Peptide 12] | 53.3 ± 0.6

same assay, conditions: p/HLA-A*02:01 prepared by TAPBPR-mediated peptide exchange, 10-fold molar excess of peptide, overnight 4° C.; DSF first derivative; ± SD of 3 replicates

Sequence | Tm [°C]
IITTDNTFV [Peptide 24] | 42.4 ± 0.6
LITGRLQSL [Peptide 29] | 44.4 ± 0.6
WLMWLIINL [Peptide 9] | 42.4 ± 4.0
GLIAIVMVTI [Peptide 23] | 40.4 ± 0.6
ILLNKHIDA [Peptide 16] | 43.4 ± 0.0
ALNTPKDHI [Peptide 26] | 44.4 ± 0.6
LQLPQGTTL [Peptide 28] | 44.4 ± 1.1
ALNTLVKQL [Peptide 1] | 48.3 ± 0.6
VLNDILSRL [Peptide 2] | 50.3 ± 0.0
SMWALIISV [Peptide 25] | 52.3 ± 0.6
SLPGVFCGV [Peptide 11] | 59.3 ± 0.0
ILLLDQALV [Peptide 10] | 52.3 ± 0.0
TTLPKGFYA [Peptide 32] | 46.3 ± 0.6
VLQLPQGTTL [Peptide 21] | 39.4 ± 0.0
GLMWLSYFI [Peptide 6] | 41.4 ± 7.9
LLLLDRLNQL [Peptide 22] | 42.4 ± 0.6
NLNESLIDL [Peptide 4] | 47.3 ± 0.6
LALLLLDRL [Peptide 27] | 43.3 ± 1.5
SIIAYTMSL [Peptide 14] | 53.3 ± 0.6
KLPDDFTGCV [Peptide 13] | 53.3 ± 0.0
GMSRIGMEV [Peptide 8] | 48.3 ± 0.0
LLLQYGSFC [Peptide 31] | 47.3 ± 0.6
LLLDRLNQL [Peptide 7] | 54.3 ± 0.6
RLNEVAKNL [Peptide 3] | 46.3 ± 0.6

biological target: T1, HLA-A*02:01; assay: not given; assay type: binding; conditions: p*MHC-I/gTAX incubated with peptide and TAPBPR, 12% native gel

Sequence | band of exchanged pMHC-I on native gel
YPNVNIHNF [non-specific peptide, non-specific gp29 peptide used as a negative control] | no condensed band

biological target: T2, gTAX/HLA-A*02:01 (Homo sapiens, UniProt P04439, D140Y/D185E/D98H/E176V/E277Q/G131W/G231S/I119V/I121R/I166T/I218V/L300P/L318F/N151K/N90K/P208A/P217A/Q86G/Q94H/R138H/R169H/T345S); assay: Native gel electrophoresis of TAPBPR-catalysed peptide exchange on gTAX/HLA-A*02:01 (Example 1); assay type: biochemical; conditions: overnight incubation, 10-fold molar excess of peptide, with TAPBPR
T2 construct: Plasmid DNA encoding the luminal domain of class I MHC (MHC-I) heavy chain HLA-A*02:01; made in house; Drosophila S2 cells (TAPBPR); gTAX synthetic (Genscript)

Sequence | peptide exchange on gTAX/HLA-A*02:01 (native gel)
YPNVNIHNF [non-specific peptide, non-specific gp29 peptide used as a negative control] | no exchange was observed
